Laboratory results published in patent US5989875A, “Method of process for producing L-lysine by fermentation” (priority 1995, dated 1999).

Tested on: DDPS
Assay: Enzyme activity of DDPS and inhibition by L-lysine (cell-free extract)
Format: biochemical, E. coli
Settings: for Inhibition of DDPS by L-lysine: various concentrations of L-lysine added, FIG. 2
Method: Mutant pdapA2's were recovered from the 36 strains described above. A dapA-deficient strain, JE7627 was transformed with them and the wild type pdapA2, respectively. A cell-free extract was prepared from each of the transformed strains, and the enzyme activity of DDPS was measured.
The cell-free extract (crude enzyme solution) was prepared as follows. A transformed strain was cultivated in a 2 x TY medium (1.6% Bacto trypton, 1% Yeast extract, 0.5% NaCl), and collected at an optical density at 660 nm (OD660) of about 0.8. A cell pellet was washed with 0.85% NaCl under a condition of 0° C., and suspended in 20 mM potassium phosphate buffer (pH 7.5) containing 400 mM KCl. The cells were disrupted by sonication (0° C., 200 W, 10 minutes). A disrupted cell solution was centrifuged at 33 krpm for 1 hour under a condition of 0° C. to obtain a supernatant to which ammonium sulfate was added to give 80% saturation to be stored at 0° C. overnight followed by centrifugation. A pellet was dissolved in 20 mM potassium phosphate buffer (pH 7.5)-400 mM KCl.
The enzyme activity of DDPS was measured in accordance with a method of Yugari et al. (Yugari, Y. and Gilvarg, C., J. Biol. Chem., 240, 4710 ([…])). Namely, the absorbance of a reaction solution having the following composition was measured at 37° C. with a spectrophotometer at a wavelength of 270 nm in a time-course manner, and generated dihydrodipicolinate was measured. Sodium pyruvate was removed from the reaction system to be used as a blank.
In measurement of the enzyme activity of DDPS, various concentrations of L-lysine were added to the enzyme reaction solutionand the degree of inhibition by L-lysine was examined.

B1: wild type DDPS: wild type dihydrodipicolinate synthase of E. coli, SEQ ID NO:4 (protein)
chain: MFTGSIVAIVTPMDEKGNVCRASLKKLIDYHVASGTSAIVSVGTTGESATLNHDEHADVVMMTLDLADGRIPVIAGTGANATAEAISLTQRFNDSGIVGCLTVTPYYNRPSQEGLYQHFKAIAEHTDLPQILYNVPSRTGCDLLPETVGRLAKVKNIIGIKEATGNLTRVNQIKELVSDDFVLLSGDDASALDFMQLGGHGVISVTTNVAARDMAQMCKLAAEEHFAEARVINQRLMPLHNKLFVEPNPIPVKWACKELGLVATDTLRLPMTPITDSGRETVRAALKHAGLL
- Inhibition of DDPS by L-lysine: suffered inhibition by L-lysine

B2: pdapAS24 (protein)
chain: MFTGSIVAIVTPMDEKGNVCRASLKKLIDYHVASGTSAIVSVGTTGESATLNHDEHADVVMMTLDLADGRIPVIAGTGANATAEAISLTQRFNDSGIVGCLTVTPYYNRPSQEGLYQYFKAIAEHTDLPQILYNVPSRTGCDLLPETVGRLAKVKNIIGIKEATGNLTRVNQIKELVSDDFVLLSGDDASALDFMQLGGHGVISVTTNVAARDMAQMCKLAAEEHFAEARVINQRLMPLHNKLFVEPNPIPVKWACKELGLVATDTLRLPMTPITDSGRETVRAALKHAGLL
- Specific activity of DDPS as compared with the wild type (cell-free extract of JE7627 transformants): lowered a little
- Inhibition of DDPS by L-lysine: desensitized
